Results published in patent US20230241257A1, “BIOTIN-MODIFIED DIMER AND USE THEREOF” (THE UNIVERSITY OF TOKYO, priority 2020, published 2023).

T1: Recombinant Human CEACAM-5/CD66e Protein, CF (R & D SYSTEMS) (human, UniProt P06731 35-685)
T1 construct: Bought recombinant protein, immobilized on a CM5 chip by amine coupling (279 RU); also called carcinoembryonic antigen
T1 sequence (looked up): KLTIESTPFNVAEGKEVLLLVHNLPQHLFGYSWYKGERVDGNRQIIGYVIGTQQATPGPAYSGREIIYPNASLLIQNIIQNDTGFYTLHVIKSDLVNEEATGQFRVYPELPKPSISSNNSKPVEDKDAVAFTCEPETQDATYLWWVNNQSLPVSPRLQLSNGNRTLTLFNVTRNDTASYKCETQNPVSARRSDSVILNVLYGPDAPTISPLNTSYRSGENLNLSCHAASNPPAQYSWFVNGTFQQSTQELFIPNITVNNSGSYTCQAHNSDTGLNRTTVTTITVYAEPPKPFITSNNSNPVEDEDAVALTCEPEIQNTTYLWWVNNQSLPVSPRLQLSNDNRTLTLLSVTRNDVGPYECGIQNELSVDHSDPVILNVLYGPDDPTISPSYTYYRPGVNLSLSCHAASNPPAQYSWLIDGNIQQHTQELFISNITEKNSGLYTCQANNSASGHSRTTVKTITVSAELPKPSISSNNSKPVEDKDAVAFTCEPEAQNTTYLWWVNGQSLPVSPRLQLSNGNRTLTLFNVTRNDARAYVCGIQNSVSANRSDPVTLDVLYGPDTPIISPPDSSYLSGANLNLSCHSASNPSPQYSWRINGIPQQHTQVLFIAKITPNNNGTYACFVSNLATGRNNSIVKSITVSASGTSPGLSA

T2: Recombinant Human CEACAM-5/CD66e Protein (Homo sapiens, UniProt P06731)
T2 construct: purchased R & D SYSTEMS
T2 sequence (P06731 35-676): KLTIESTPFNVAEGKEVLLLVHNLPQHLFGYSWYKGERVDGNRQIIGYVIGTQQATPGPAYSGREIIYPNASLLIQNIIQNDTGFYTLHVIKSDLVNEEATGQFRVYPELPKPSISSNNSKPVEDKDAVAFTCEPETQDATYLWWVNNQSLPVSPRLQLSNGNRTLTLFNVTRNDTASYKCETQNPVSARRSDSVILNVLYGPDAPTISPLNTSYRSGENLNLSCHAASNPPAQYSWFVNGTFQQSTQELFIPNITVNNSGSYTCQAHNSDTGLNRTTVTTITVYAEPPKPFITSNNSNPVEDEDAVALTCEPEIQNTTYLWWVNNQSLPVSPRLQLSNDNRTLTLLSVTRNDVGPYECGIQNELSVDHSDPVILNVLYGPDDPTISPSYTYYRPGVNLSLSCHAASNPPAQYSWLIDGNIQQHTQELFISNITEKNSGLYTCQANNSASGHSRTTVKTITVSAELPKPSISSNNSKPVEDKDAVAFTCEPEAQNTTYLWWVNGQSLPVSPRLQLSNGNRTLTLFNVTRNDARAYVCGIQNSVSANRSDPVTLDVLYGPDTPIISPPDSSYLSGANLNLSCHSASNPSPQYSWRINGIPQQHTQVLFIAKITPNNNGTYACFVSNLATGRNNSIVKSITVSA

B1: CEA-V2122 protein (scFv-type anti-CEACAM5 antibody fused to mutant streptavidin V2122 via the linker GGGGSGGGG) (scFv)
scFv: QVKLEQSGAEVVKPGASVKLSCKASGFNIKDSYMHWLRQGPGQRLEWIGWIDPENGDTEYAPKFQGKATFTTDTSANTAYLGLSSLRPEDTAVYYCNEGTPTGPYYFDYWGQGTLVTVSSGGGGSGGGGSGGGGSENVLTQSPSSMSVSVGDRVNIACSASSSVPYMHWLQQKPGKSPKLLIYLTSNLASGVPSRFSGSGSGTDYSLTISSVQPEDAATYYCQQRSSYPLTFGGGTKLEIKGGGGSGGGGAEAGITGTWSDQLGDTFIVTAGADGALTGTYENAVGGAESRYVLTGRYDSAPATDGSGTALGWTVAWKNNSKNAHSATTWSGQYVGGADAKINTQWLLTSGTTNANAWKSTLVGHDTFTKVKPSAASHHHHHH
notes: It was secreted and purified from the culture supernatant through the His tag and Protein L. The purified product is mainly a tetramer of about 150 kDa; also called Cupid-scFv antibody; CEA-Cupid
B2: CEA-V2122: scFv-type anti-CEACAM5 antibody bound to mutant streptavidin V2122 via amino acid linker GGGGSGGGG (SEQ ID NO: 3) (protein)
scFv: B1 scFv

How the values were obtained:
[1] = target: T1, Recombinant Human CEACAM-5/CD66e …; assay: SPR, Biacore T200, CEACAM5 immobilized on CM5, CEA-V2122 as analyte, single-cycle kinetics, bivalent analysis fit (KD = kd1/ka1)
Protocol: (§1) The affinity of CEA-V2122 for the antigen CEACAM5 was evaluated using a surface plasmon resonance (SPR) measuring device, Biacore T200 (GE Healthcare Life Sciences). Specifically, Recombinant Human CEACAM-5/CD66e Protein, CF (R & D SYSTEMS) was immobilized on Sensor Chip CM5 (GE Healthcare Life Sciences) using an amine-coupling kit (GE Healthcare Life Sciences). The final amount of the ligand immobilized was 279 RU. Moreover, about the purified CEA-V2122, two-fold serial dilutions from 1E-08 M to 6.25E-10 M were prepared as analytes. Regarding interaction analysis, data were obtained by single-cycle kinetics analysis.

[2] = target: T2, Recombinant Human CEACAM-5/CD66e Protein; assay: SPR affinity of CEA-V2122 for the antigen CEACAM5 (Biacore T200); format: binding
Protocol: as §1, with “analysis. Using Biacore T200 Evaluation Software, version 2.0, the obtained data were subjected to curve fitting in a bivalent analysis mode, and the following values were obtained: ka1=3.208E+5, and kd1=3.461E−7.” for “analysis.”

[3] = single-cycle kinetics, bivalent analysis mode

| Molecule | Kd [1] [pM] | KD=kd1/ka1 ([2]; bivalent analysis) | ka1 [2, 3] | kd1 [2, 3] |
| --- | --- | --- | --- | --- |
| B1 | 1.08 | – | – | – |
| B2 | – | 1.078E−12 | 3.208E+5 | 3.461E−7 |
